According to patent US8835467B2, “SIR2 regulation” (Albert Einstein College of Medicine of Yeshiva University, priority 2003, dated 2014):

Substrate: NC(=O)c1cccnc1
Test: purified protein, by the assay type
Format: biochemical
Conditions: other: mouse enzyme; saturating NAD+ and peptide; pH 7.8
Description: After 2 hours, aliquots of 10 μL removed at 0, 30, 60, 90 and 120 min. Each aliquot was combined with 50 μL 50 mM ammonium acetate pH 5.0 to quench and assayed by HPLC for deacetylation products and NAD^+. The chromatograms (260 nm) were obtained using 50 mM ammonium acetate pH 5.0 as eluant on a semi-preparative Waters C-18 column (2.0 mL/min flow rate). Peaks for ADPR and 3′-O-Acetyl-ADPR were quantified by integration. The peak for NAD^+ was collected and radiation counted.

B1: Mouse SIR2 enzyme (SIR2α) (Mus musculus) (protein)
chain: MADEVALALQAAGSPSAAAAMEAASQPADEPLRKRPRRDGPGLGRSPGEPSAAVAPAAAGCEAASAAAPAALWREAAGAAASAEREAPATAVAGDGDNGSGLRREPRAADDFDDDEGEEEDEAAAAAAAAAIGYRDNLLLTDGLLTNGFHSCESDDDDRTSHASSSDWTPRPRIGPYTFVQQHLMIGTDPRTILKDLLPETIPPPELDDMTLWQIVINILSEPPKRKKRKDINTIEDAVKLLQECKKIIVLTGAGVSVSCGIPDFRSRDGIYARLAVDFPDLPDPQAMFDIEYFRKDPRPFFKFAKEIYPGQFQPSLCHKFIALSDKEGKLLRNYTQNIDTLEQVAGIQRILQCHGSFATASCLICKYKVDCEAVRGDIFNQVVPRCPRCPADEPLAIMKPEIVFFGENLPEQFHRAMKYDKDEVDLLIVIGSSLKVRPVALIPSSIPHEVPQILINREPLPHLHFDVELLGDCDVIINELCHRLGGEYAKLCCNPVKLSEITEKPPRPQKELVHLSELPPTPLHISEDSSSPERTVPQDSSVIATLVDQATNNNVNDLEVSESSCVEEKPQEVQTSRNVENINVENPDFKAVGSSTADKNERTSVAETVRKCWPNRLAKEQISKRLEGNQYLFVPPNRYIFHGAEVYSDSEDDVLSSSSCGSNSDSGTCQSPSLEEPLEDESEIEEFYNGLEDDTERPECAGGSGFGADGGDQEVVNEAIATRQELTDVNYPSDKS
notes: purchased Upstate Group
B1 showed a Km of 127 µM.
